Results on two molecules are retold here after paper PMC3544974 (Structure (London, England : 1993), 2012).

Data set [1] has as its target HBeAg used for crystallization: Cp(-10)149, C48A, C107A, G123A (Hepatitis B virus) (UniProt P03147). The data set is described as follows: crystal structure.
The data set “AUC” concerns the molecule itself. The data set is described as follows: AUC.

Usually stoichiometry N stands for a count of units in the complex or per binding partner. As for “HBeAg used for crystallization: Cp(-10)149, C48A, C107A, G123A (from UniProt P03147 1-149) (natural protein)”, the stoichiometry N in data set [1] was 2.

B1: HBeAg construct Cp(-10)149, C48A, C107A (natural protein)
chain: SKLCLGWLWGMDIDPYKEFGATVELLSFLPSDFFPSVRDLLDTAAALYRDALESPEHASPHHTALRQAILCWGDLMTLATWVGTNLEDPASRDLVVSYVNTNVGLKFRQLLWFHISALTFGRETVLEYLVSFGVWIRTPPAYRPPNAPILSTLPETTVV
Turning to B1, the “stoichiometry N” value in the data set “AUC” stood at 2.
